Assay results as given in the supplement of paper PMC9170038.

Tests used:
[1] = tested on: MS2 coat protein; test: apparent KD of MS2 coat protein, switch OFF state (with FMN for OFF switches, without FMN for ON switches); designed switch direction (-1 OFF switch, 1 ON switch): -1; higher = weaker reporter binding; conditions: FMN input: 0 or 200 uM; Eterna round: R93 (includes R88 designs)
How it was run: (§1)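 In 100 mM Tris-HCl pH 7.5 with 80 mM KCl and 4 mM MgCl2, and without or with constant ligand, SNAP-549-labelled MS2 coat protein was titrated in twofold steps from 0.7 or 1.5 nM to 3 µM. Per-step times went from 0.8–1.5 h down to 10–20 min. The RNA switches were transcribed on-chip from Illumina sequencing clusters, and apparent KD is the per-design median of normalised cluster binding-curve fits.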

[2] = tested on: MS2 coat protein; test: apparent KD of MS2 coat protein, switch ON state; designed switch direction (-1 OFF switch, 1 ON switch): -1; higher = weaker reporter binding; conditions: FMN input: 0 or 200 uM; Eterna round: R93 (includes R88 designs)
How it was run: as §1

| Sequence | apparent KD of MS2 coat protein [1] [nM] | apparent KD of MS2 coat protein [2] [nM] |
| --- | --- | --- |
| GGUUGUGAAGGAUAUACAUGAGGAUCACCCAUGUGAGAGAAAAAAGUGAGAAAGAAAAGUAGAAGGUCGUGACG [salish99-ex3-73] | 40.2 | 34.7 |
| GUAAACCUAGGAUAUACAUGAGGAUCACCCAUGUAAAAUUUCAUAAAAAGAAAAUCAAGUAGAAGGAGGUAGAU [JR_Exc003_Sub1223] | 24.8 | 17.3 |
| CGCUAGUCAGGAUAUACAAACAUGUCAAAAGACGUGAAAAAACAUGAGGAUCACCCAUGUAGAAGGGACUAGCG [Mat - Exclusion 2 - JL mod - D18] | 17.7 | 15.7 |
| AACAGUACAGGAUAUACAUGAGGAUCACCCAUGUGAGAAUUAAGUGGAAGACCACAAAGUAGAAGGGUACUGAA [Mat - Exclusion 3 - JL mod - D10] | 189 | 28.4 |
| GAAAAGUCAGGAUAUAUGCGAAAAAUAAAAAAAAUAAAAACAUAGAAGGGACAUGAGGAUCACCCAUGUUAAAG [Mat - Exclusion 4 - Mayanna - D135] | 25.4 | 37.7 |
| UGUUGGCGAGGAUAUACAUGAGGAUCACCCAUGUGAGAGAAAAAAGUGAGAAAGAAAAGUAGAAGGCGCUGACC [salish99-ex3-10] | 203 | 68.5 |
| AAAAAACAUGAGGAUCACCCAUGUGAGGAUAUGCGAAAAUAAAAUAAAUAAAUAAAAAGCAGAAGGCACACCAA [Mat - Exclusion 1 - Eli mod - D60] | 41.1 | 25.3 |
| GAACGCCUAGGAUAUACAUGAGGAUCACCCAUGUCUCCCAGUCCUGGAGUGACCUCUAGUAGAAGGAGGAAUAA [Ertein] | 115 | 342 |
| AACUCGUCAGGAUAUGCGCACAGAUAAUACGCUACACAAAAGCAGAAGGGACAUGAGGAUCACCCAUGUAAAUA [JR_Exc004_Sub503] | 22.1 | 35.1 |
| UCGUGGUCAGGAUAUACAUGAGGAUCACCCAUGUAAAAGAACAUAAAGGAGAGACGACGUAGAAGGGACAAAUA [Ralasoena] | 51.5 | 46.3 |
| CUCUAGUCAGGAUAUACAAGAAAAGAAAAGAAAGAAAAGAAGUAGAAGGGACAUGAGGAUCACCCAUGUAAGAA [EteRNA is fun!] | 91.5 | 70.4 |
| AACUGACAUGAGGAUCACCCAUGUCAGGAUAUGACUUCAAAAAAAAAAAAAAAUGAUGUCAGAAGGGACAUGAA [Design 62: Sub-opt L] | 19.3 | 24.4 |
| AAAACACAUGAGGAUCACCCAUGUGAGGAUAUGCUAUGGAAAUAAAAAAUAAAACAUAGCAGAAGGCACAAAAA [Mat - Exclusion 1 - Eli mod - D40] | 39 | 23.9 |
| AAAAAGUCAGGAUAUGGCAAAGGUCACGAAAGUGACAAAGGCUAGAAGGGACAUGAGGAUCACCCAUGUAAAAA [Fiskers Exclusion 4 D3] | 35.3 | 53.4 |
| AGCUAGUCAGGAUAUACGAACAUGUAAAAAGAAGUGAAGGGACAUGAGGAUCACCCAUGUAGAAGGGACUAGAA [74%, Web mod - With 3 less C's] | 109 | 55.5 |
| AGUCGGCGAGGAUAUACAUGAGGAUCACCCAUGUGAGAGAUAAAAGUGAGUUAGACAAGUAGAAGGCGCUGACA [JL Lego Mod 9] | 480 | 44.3 |
| AUAAAGUGAGGAUAUACAUGAGGAUCACCCAUGUGAAAGUCUAAAAAAAUGACAAAAAGUAGAAGGCACAAAUA [Mai Tai2 ala mod Fisker] | 23.5 | 18.8 |
| AACGCACAUGAGGAUCACCCAUGUCAGGAUAUCGUGGCGGGAAAAACCGGGAAACGCACGAGAAGGGACAAAAA [EX1 Malc#18 Mod 14 - Jieux - Exclusion 1] | 42.2 | 47.6 |
| AAAAAACAUGAGGAUCACCCAUGUGAGGAUAUUGGUAUUCAAGAUAUAAUCUUAAUAGCGAGAAGGCGCAAAAA [Brourd 613 Mod 17 - Jieux - Exclusion 1] | 21.9 | 24.1 |
| AAGAAGGCAGGAUAUACAUGAGGAUCACCCAUGUAAAAGAAAGAAGGGAAAGAGAAAAGUAGAAGGGCCAAGAA [Hedjkheperre-setpenre Takelot II] | 68.4 | 43.8 |
| AGGAAACAUGAGGAUCACCCAUGUAAGGAUAUGUGAAAGAAAAGAAAAGAAAGAAGAAACAGAAGGUACAAGAA [Qa'a] | 42.4 | 46.3 |
| AAGAAACAUGAGGAUCACCCAUGUAAGGAUAUGUAAAAGAAAAGAAAAGAAAGAAGAAACAGAAGGUACAAAGG [Wahankh Intef II] | 33.7 | 46 |
| AAAAAACAUGAGGAUCACCCAUGUGAGGAUAUGCAAAACCCAUAUAAAAAGGGAAAAAGCAGAAGGUACAAAAA [Starry Exclusion 1.2 (wbt round 1 mod)] | 21.3 | 20.7 |

| Sequence | apparent KD of MS2 coat protein [1] [nM] | apparent KD of MS2 coat protein [2] [nM] |
| --- | --- | --- |
| AAAUAGCAAGGAUAUACAUGAGGAUCACCCAUGUAAAAAUGGAAAGUAAUAAAAUAAAGUAGAAGGUGCAAAUA [Ex 3 Tesla 3] | 37 | 26.9 |
| AAGAAGGUAGGAUAUACUAAAGAAAUGAAAAGAAAUAAAGAACAUGAGGAUCACCCAUGUAGAAGGACCAAGAA [Webenre] | 32.2 | 25.8 |
| AAAAAGUUAGGAUAUACAUGAGGAUCACCCAUGUACACAUAUGGAGAAUAUGGUAGUAGUAGAAGGGACAAAAA [EX2 Malc#15] | 31.1 | 27.1 |
| AAUAACAGAGGAUAUACGAAAAUAAGCGGAAACGCAAAGGGACAUGAGGAUCACCCAUGUAGAAGGCUGGAUAA [Tetraloop... 61% 2] | 148 | 28.3 |
| AAGAAGCAAGGAUAUACAAAAUAAAAGAAAAGAAAGAAAGAACAUGAGGAUCACCCAUGUAGAAGGUGCAAGAA [Djedkheperew] | 31 | 31.1 |
| AGCUGGAGAGGAUAUACGUAGGAAAAAAAAGUCUGAUCCCUACAUGAGGAUCACCCAUGUAGAAGGCUCUGGCA [Ex2 Design 161: Sub-opt 25] | 63.6 | 63.5 |
| AAAAAUUGAGGAUAUACGUACAUGUCAAAAGACGUGAAGGGACAUGAGGAUCACCCAUGUAGAAGGCGAAAAAA [JL Neck Breaker 12] | 13.6 | 38.8 |
| AGCAAGAGAGGAUAUACAUAGGAAAAAAAAGUCAGAUCCCUACAUGAGGAUCACCCAUGUAGAAGGCUCUGGCA [Ex2 Design 154: Sub-opt 18] | 12.2 | 15.1 |
| AAGAUGUCAGGAUAUGUGUAAAGAAUAAAAGAAAUAACAACACAGAAGGGACAUGAGGAUCACCCAUGUCAACA [May 34] | 19.8 | 26.9 |
| CAGUACUGAGGAUAUACAUGAGGAUCACCCAUGUAUCCAAGCUAGGAAACUAGCAAAUGUAGAAGGCAGUACUG [Ex3: 821] | 319 | 37.5 |
| GAAAAGUGAGGAUAUGUCAAAAGUCACAAAAGUGACAAAAGACAGAAGGCACAUGAGGAUCACCCAUGUGGAAG [Mat - Exaclusion 4 - Eli mod - D52] | 41.1 | 33.8 |
| AUAAAGCGAGGAUAUACAUGAGGAUCACCCAUGUAAAUAAAUAGGAGAGCCACAAUAAGUAGAAGGUGUAAUAA [JR_Exc003_Sub009] | 73.3 | 62.6 |
| GGUUGGCGAGGAUAUACAUGAGGAUCACCCAUGUGAGAGAAAAAAGUGAGAUAGAAAAGUAGAAGGCGCUGACG [salish99-ex3-34] | 286 | 58.8 |
| GAUAAACAUGAGGAUCACCCAUGUCAGGAUAUGCACUAACUAACUAACUAACUAGCUAGCAGAAGGGACACUAC [Amethyst 86] | 33.4 | 24.9 |
| AAAGCACGAGGAUAUACAUGAGGAUCACCCAUGUAUAAAAAAAAAAAAAAAUCCUCAUGUAGAAGGCGUGCAAA | 9.78 | 17.4 |
| AACAUGUUAGGAUAUGAAAGAAAAGAAAAGAAAGAAAAGAAUCAGAAGGAACAUGAGGAUCACCCAUGUAAGAA [EteRNA is fun!] | 19.8 | 25.6 |
| AAGGGACAUGAGGAUCACCCAUGUCAGGAUAUGAUGCGAAUAAAGAAAGAAUAAAGCAUCAGAAGGGACAAAAA [Mat - Exclusion 1 - Eli mod - D63] | 55.7 | 35.6 |
| UGCAUGUAAGGAUAUGCAACCGGCGCACAUUAGCAGGUCAAGCAGAAGGUACAUGAGGAUCACCCAUGUGUCCG [Lalebiis] | 99.4 | 26.9 |
| AAAAAGUCAGGAUAUACGAACAUGUCAAAAGACGUGAAGGGACAUGAGGAUCACCCAUGUAGAAGGGACAAGAA [JL Stem Breaker 20] | 39.6 | 85.2 |
| AAAAAGGCAGGAUAUACAUGAGGAUCACCCAUGUAAAAAAAAAAAAAGGGAAAAAAAAGUAGAAGGGCCAAAAA [Khamudi] | 48.5 | 35.8 |
| AAAAAACAUGAGGAUCACCCAUGUGAGGAUAUCCAAAAGUUAAAUAAAAAGACGAAAAGGAGAAGGCGCAAAAA [Mat - Mod of Eli] | 39.4 | 64.9 |
| AUAGGCCUAGGAUAUACAUGAGGAUCACCCAUGUAAAUAAAUCGAUCAUGAUAAACGUGUAGAAGGAGGAAUAA [JR_Exc003_Sub206] | 39.5 | 28.8 |
